From PMC5740162, “Cryo-EM structure of a licensed DNA replication origin” (Nature Communications, 2017)

Legend:
Mcm3 = molecular target: T1, Mcm3 (budding yeast, UniProt P24279 1-971); test: cryo-EM structure; MCM loaded on bead-immobilised biotinylated 2.8 kb ARS1 DNA with ORC, Cdc6, ATP; with or without DDK; high-salt wash (0.3 M KCl); DNA released by MseI in EM buffer (25 mM Hepes 7.6, 5 mM Mg-acetate, 250 mM K-glutamate); lacey carbon grids, Titan Krios/K2; settings: both partners purified
T1 construct: Mcm3, subunit of the yeast Mcm2-7 helicase; Subunit as it stands in the loaded, unmodified MCM double hexamer; The complex was purified on calmodulin resin

Mcm4 = molecular target: T2, Mcm4 (budding yeast, UniProt P30665 1-933); test: as above; settings: both partners purified
T2 construct: Mcm4, subunit of the yeast Mcm2-7 helicase; Subunit as it stands in the loaded, unmodified MCM double hexamer
T2 sequence: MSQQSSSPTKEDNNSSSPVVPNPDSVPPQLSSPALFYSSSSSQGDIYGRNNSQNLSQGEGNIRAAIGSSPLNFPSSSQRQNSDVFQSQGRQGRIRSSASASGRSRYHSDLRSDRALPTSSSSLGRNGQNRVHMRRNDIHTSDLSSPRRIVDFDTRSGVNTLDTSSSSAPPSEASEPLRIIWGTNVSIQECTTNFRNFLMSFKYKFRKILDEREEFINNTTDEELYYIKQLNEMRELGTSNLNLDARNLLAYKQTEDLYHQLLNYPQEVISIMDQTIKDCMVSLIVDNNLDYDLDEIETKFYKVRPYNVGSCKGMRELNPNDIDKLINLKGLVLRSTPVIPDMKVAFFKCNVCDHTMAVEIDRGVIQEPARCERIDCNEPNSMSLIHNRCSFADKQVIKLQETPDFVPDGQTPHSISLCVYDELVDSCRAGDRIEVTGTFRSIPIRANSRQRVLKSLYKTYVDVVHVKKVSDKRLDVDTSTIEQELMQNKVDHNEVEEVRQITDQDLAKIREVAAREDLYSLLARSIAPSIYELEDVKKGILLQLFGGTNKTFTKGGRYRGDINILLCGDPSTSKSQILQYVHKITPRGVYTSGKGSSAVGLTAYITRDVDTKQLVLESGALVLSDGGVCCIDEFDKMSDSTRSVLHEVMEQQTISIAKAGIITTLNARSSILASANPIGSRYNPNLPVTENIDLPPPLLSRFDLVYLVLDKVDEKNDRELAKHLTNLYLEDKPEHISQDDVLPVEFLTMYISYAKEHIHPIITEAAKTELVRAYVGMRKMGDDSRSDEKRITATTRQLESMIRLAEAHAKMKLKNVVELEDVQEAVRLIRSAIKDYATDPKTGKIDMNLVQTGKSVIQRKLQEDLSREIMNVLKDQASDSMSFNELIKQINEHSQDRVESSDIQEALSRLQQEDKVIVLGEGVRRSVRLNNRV

T1 sequence (P24279 whole entry): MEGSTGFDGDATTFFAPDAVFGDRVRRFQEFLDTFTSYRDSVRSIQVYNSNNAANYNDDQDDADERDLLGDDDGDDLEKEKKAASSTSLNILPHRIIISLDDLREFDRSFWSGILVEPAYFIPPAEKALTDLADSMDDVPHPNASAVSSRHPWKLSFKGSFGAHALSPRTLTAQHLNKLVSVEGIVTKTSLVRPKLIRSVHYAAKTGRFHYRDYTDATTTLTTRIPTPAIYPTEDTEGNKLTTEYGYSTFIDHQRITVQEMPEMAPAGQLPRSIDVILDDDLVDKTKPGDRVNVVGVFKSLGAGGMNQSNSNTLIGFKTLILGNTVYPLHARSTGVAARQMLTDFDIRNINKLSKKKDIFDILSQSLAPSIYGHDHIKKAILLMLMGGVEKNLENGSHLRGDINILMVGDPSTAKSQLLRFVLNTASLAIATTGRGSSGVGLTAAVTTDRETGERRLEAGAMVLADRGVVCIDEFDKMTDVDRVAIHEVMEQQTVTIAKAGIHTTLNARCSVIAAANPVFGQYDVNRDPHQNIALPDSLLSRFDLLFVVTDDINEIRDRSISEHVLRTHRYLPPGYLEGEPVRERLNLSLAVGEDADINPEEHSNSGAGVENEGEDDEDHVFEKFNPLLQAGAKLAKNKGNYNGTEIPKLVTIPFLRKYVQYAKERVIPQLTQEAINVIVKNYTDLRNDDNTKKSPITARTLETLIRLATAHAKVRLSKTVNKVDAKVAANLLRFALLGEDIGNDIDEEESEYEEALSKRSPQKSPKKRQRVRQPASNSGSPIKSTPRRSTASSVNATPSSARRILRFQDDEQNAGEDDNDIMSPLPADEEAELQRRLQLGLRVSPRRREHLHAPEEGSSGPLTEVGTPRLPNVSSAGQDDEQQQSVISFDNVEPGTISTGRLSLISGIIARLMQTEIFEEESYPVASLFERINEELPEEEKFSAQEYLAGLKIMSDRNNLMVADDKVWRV

B1: Mcm7 (natural protein, budding yeast)
chain: MSAALPSIQLPVDYNNLFNEITDFLVTFKQDTLSSDATRNENEDENLDAENIEQHLLEKGPKYMAMLQKVANRELNSVIIDLDDILQYQNEKFLQGTQADDLVSAIQQNANHFTELFCRAIDNNMPLPTKEIDYKDDVLDVILNQRRLRNERMLSDRTNEIRSENLMDTTMDPPSSMNDALREVVEDETELFPPNLTRRYFLYFKPLSQNCARRYRKKAISSKPLSVRQIKGDFLGQLITVRGIITRVSDVKPAVEVIAYTCDQCGYEVFQEVNSRTFTPLSECTSEECSQNQTKGQLFMSTRASKFSAFQECKIQELSQQVPVGHIPRSLNIHVNGTLVRSLSPGDIVDVTGIFLPAPYTGFKALKAGLLTETYLEAQFVRQHKKKFASFSLTSDVEERVMELITSGDVYNRLAKSIAPEIYGNLDVKKALLLLLVGGVDKRVGDGMKIRGDINVCLMGDPGVAKSQLLKAICKISPRGVYTTGKGSSGVGLTAAVMKDPVTDEMILEGGALVLADNGICCIDEFDKMDESDRTAIHEVMEQQTISISKAGINTTLNARTSILAAANPLYGRYNPRLSPLDNINLPAALLSRFDILFLMLDIPSRDDDEKLAEHVTYVHMHNKQPDLDFTPVEPSKMREYIAYAKTKRPVMSEAVNDYVVQAYIRLRQDSKREMDSKFSFGQATPRTLLGIIRLSQALAKLRLADMVDIDDVEEALRLVRVSKESLYQETNKSKEDESPTTKIFTIIKKMLQETGKNTLSYENIVKTVRLRGFTMLQLSNCIQEYSYLNVWHLINEGNTLKFVDDGTMDTDQEDSLVSTPKLAPQTTASANVSAQDSDIDLQDA
notes: Mcm7, subunit of the yeast Mcm2-7 helicase; Subunit as it stands in the loaded, unmodified MCM double hexamer
B1: binds (Mcm3); binds (Mcm4).
